Assays:
[1] = molecular target: T1, hKGF receptor present in the PC-3 plasma membrane extracts (UniProt P21802-3 22-822, limits assumed); assay: gel shift competition: unlabeled hKGF against 125I-hKGF with PC-3 plasma membrane extract
T1 construct: A crude detergent extract, not a purified protein; Two complexes (C1, C2) were seen; also called component found in the PC-3 membrane extracts
Experimental: (§1) For electrophoretic mobility shift gels, about 3×10⁷ PC-3 cells were gently spun and washed with PBS and then lysed by mixing with equal volume of lysis buffer containing 40 mM Hepes, pH 7.4, 150 mM NaCl, 20% glycerol, 2% triton X-100, 0.1% sodium azide, 3 mM MgCl₂, 3 mM EGTA, 2 μM aprotinin, 2 μM leupeptin, 2 mM PMSF, and 400 μM sodium orthovanadate. Following 15 min incubation on ice the extract was spun at 11,000 g at 4° C. for 30 min to remove debris and nuclei and the supernatant was aliquoted and stored at −70° C. […] Following a 10 min incubation at room temperature, 6× loading dye was added to achieve 1× concentration, and the samples were loaded onto a 5% or 10% native TBE polyacrylamide gel. The gel was prerun at room temperature at 100 Volts. Following loading, the gel was run at 200 Volts for 5 min and then at 100 Volts for 30-60 min at room temperature. The radioactive bands were then visualized by autoradiography.

[2] = molecular target: T1, hKGF receptor present in the PC-3 …; assay: native gel electrophoretic mobility shift of 125I-hKGF by PC-3 plasma membrane extract
Experimental: as §1

T1 sequence (P21802 other isoform, or with tags, fused parts or gaps limits assumed): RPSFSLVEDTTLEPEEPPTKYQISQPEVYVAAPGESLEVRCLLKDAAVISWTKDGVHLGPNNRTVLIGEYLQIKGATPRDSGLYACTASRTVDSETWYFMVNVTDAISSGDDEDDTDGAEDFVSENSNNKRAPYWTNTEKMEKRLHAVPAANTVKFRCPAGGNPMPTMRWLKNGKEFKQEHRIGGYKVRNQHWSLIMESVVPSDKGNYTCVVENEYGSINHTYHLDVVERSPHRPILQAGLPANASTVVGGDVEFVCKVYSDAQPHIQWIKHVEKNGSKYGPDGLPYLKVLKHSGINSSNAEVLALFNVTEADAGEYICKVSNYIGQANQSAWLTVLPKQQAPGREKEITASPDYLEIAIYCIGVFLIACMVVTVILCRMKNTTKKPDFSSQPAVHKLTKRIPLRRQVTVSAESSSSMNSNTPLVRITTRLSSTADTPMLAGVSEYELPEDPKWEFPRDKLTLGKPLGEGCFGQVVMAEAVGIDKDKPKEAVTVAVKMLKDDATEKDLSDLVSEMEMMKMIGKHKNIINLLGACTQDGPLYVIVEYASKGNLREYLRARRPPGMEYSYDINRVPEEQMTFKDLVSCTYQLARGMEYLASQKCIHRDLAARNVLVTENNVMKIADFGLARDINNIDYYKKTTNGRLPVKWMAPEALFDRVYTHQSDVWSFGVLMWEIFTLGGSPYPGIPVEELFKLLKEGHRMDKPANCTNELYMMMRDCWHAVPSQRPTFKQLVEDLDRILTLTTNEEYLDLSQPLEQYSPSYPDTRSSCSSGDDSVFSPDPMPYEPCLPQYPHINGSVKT

B1: Recombinant human Keratinocyte Growth Factor (hKGF) (ligand, UniProt P21781 32-194, looked up)
chain: CNDMTPEQMATNVNCSSPERHTRSYDYMEGGDIRVRRLFCRTQWYLRIDKRGKVKGTQEMKNNYNIMEIRTVAVGIVAIKGVESEFYLAMNKEGKLYAKKECNEDCNFKELILENHYNTYASAKWTHNGGEMFVALNQKGIPVRGKKTKKEQKTAHFLPMAIT
notes: also called FGF-7
- IC50 [1]: 70 nM
- Kd [2]: ~8 nM

From patent US20030180744A1 (published 2003)
